Experimental data as given in patent US20060263849A1, “Glucagon-like peptide-1 analogs” (priority 2000, published 2006).
Where “and” joins values, the source holds several entries; their conditions need not be identical. Identical values can stand only once. Where no end group is shown, it is not given here.

Legend:
GLP-1 receptor = GLP-1 receptor activation, in vitro assays; format: cell-based; conditions: activity relative to the activity of GLP-1(7-37)OH
From the text: “Insulinotropic activity” refers to stimulating insulin secretion in response to elevated glucose levels, thereby causing glucose uptake by cells and decreased serum glucose levels. Insulinotropic activity can be assessed by methods known in the art, including using in vivo experiments and in vitro assays that measure GLP-1 receptor binding activity or receptor activation, e.g., assays employing pancreatic islet cells or insulinoma cells, as described in EP 619,322 to Gelfand, et al., and U.S. Pat. No. 5,120,712, respectively. The entire teachings of these references are incorporated herein by reference.
The ability of the GLP-1 compounds of the present invention to activate the GLP-1 receptor was assessed using in vitro assays such as those described in EP 619,322 to Gelfand, et al., and U.S. Pat. No. 5,120,712, respectively. The entire teachings of these references are incorporated herein by reference.

[1] = GLP Aggregation Assay (time to onset of aggregation, turbidity at 350 nm); format: physicochemical; conditions: for Aggregation Time: 0.3 mg/mL in 10 mM citrate, 10 mM phosphate, 150 mM NaCl, pH 7.4 to 7.5, 37° C., stirred, turbidity at 350 nm
Protocol: GLP peptides of this invention were analyzed with respect to their potential to aggregate in solution. In general, peptides in solution were stirred at elevated temperature in a suitable buffer while recording turbidity at 350 nm as a function of time. Time to the onset of aggregation was measured to quantify the potential of a given GLP molecule to aggregate under these stressed conditions.
A GLP-1 compound was first dissolved under alkaline conditions (pH 10.5) for 30 minutes to dissolve any pre-aggregated material. The solution was then adjusted to pH 7.4 and filtered. Specifically, 4 mg of a lyophilized GLP-1 compound was dissolved in 3 ml of 10 mM phosphate/10 mM citrate. The pH was adjusted to 10.0-10.5 and held for 30 minutes. The solution was adjusted with HCl to pH 7.4 and filtered through a suitable filter, for example a Millex GV syringe filter (Millipore Corporation, Bedford, Mass.). This solution was then diluted to a final sample containing 0.3 mg/mL protein in 10 mM citrate, 10 mM phosphate, 150 mM NaCl, and adjusted to pH 7.4 to 7.5. […] Every five minutes the turbidity of the solution was measured at 350 nm on an AVIV Model 14DS UV-VIS spectrophotometer (Lakewood, N.J.). For 30 seconds prior to and during the measurement the solution was stirred using a magnetic stir bar from Starna Cells, Inc. (Atascadero, Calif.). An increase in OD at 350 nm indicates aggregation of the GLP-peptide. The time to aggregation was approximated by the intersection of linear fits to the pre-growth and growth phase according to method of Drake (Arvinte T, Cudd A, and Drake A F. (1993) J. Bio. Chem. 268, 6415-6422).
The cuvette was cleaned between experiments with a caustic soap solution (e.g., Contrad-70).
The results for a number of GLP-1 compounds of the present invention are reported in Table 1 as the time in hours required for the compound to aggregate.

[2] = Zinc precipitation of GLP-1 compounds (A280 of supernatant); format: physicochemical; conditions: HEPES pH 7.4, 22° C., 18 hours
Protocol: Individual GLP-1 compounds were prepared as described in Examples 1 or 2. 3 mg of an individual lyophilized GLP molecule was dissolved in 3 ml 0.1 M HEPES buffer pH 10.5. The pH of the resulting solution was then adjusted to between 10.0 and 10.5 with 0.2 N NaOH. The solution was stirred at ambient temperature for 30 minutes and the solution was then adjusted to a pH of 7.4 with 0.2 N HCl. The solution was filtered through an appropriate syringe filter, for example a Millex GV syringe filter (Millipore Corporation, Bedford, Mass.), and the concentration of the GLP-1 compound was estimated by measuring the absorption at 280 nm in a spectrophotometer, for example a Beckman DU640. The protein concentration was then adjusted to 200 μM in HEPES pH 7.4.
The filtered GLP-1 solutions (100 μl) were diluted with 100 μl of 0.1 M HEPES pH 7.4 containing various levels of zinc chloride in an ELISA plate, (e.g. Falcon Microtest™ 96) resulting in 200 μl of solution containing various levels of zinc chloride and 100 μM GLP-1 compounds. These solutions were incubated at ambient temperature (22° C.) for 18 hours and then centrifuged, for example, in a Jouan CR412 centrifuge with microplate adapters. 150 μl of the supernatants after centrifugation were then transferred to a UV-readable ELISA microtiter plate (e.g. Costar UV plate) and the OD at 280 was determined in a microplate reader (e.g. Molecular Devices SPECTRAmax PLUS, SOFTmax PRO). A280 values are the result of two independent determinations.

[3] = Zn/GLP-1 molar ratio 0, 100 μM GLP-1 compound
[4] = Zn/GLP-1 molar ratio 0.3, 100 μM GLP-1 compound
[5] = Zn/GLP-1 molar ratio 0.5, 100 μM GLP-1 compound
[6] = Zn/GLP-1 molar ratio 0.7, 100 μM GLP-1 compound
[7] = Zn/GLP-1 molar ratio 1, 100 μM GLP-1 compound
[8] = Zn/GLP-1 molar ratio 2, 100 μM GLP-1 compound
[9] = Zn/GLP-1 molar ratio 3, 100 μM GLP-1 compound
[10] = Zn/GLP-1 molar ratio 5, 100 μM GLP-1 compound

Substance | GLP-1 Receptor Activation (GLP-1 receptor) | Aggregation Time [1] | other results
Val^8-Phe^22-GLP-1(7-37)OH |  |  | A280 [2, 3]: 0.31; A280 [2, 4]: 0.1485; A280 [2, 5]: 0.1165; A280 [2, 6]: 0.1015; A280 [2, 7]: 0.1265; A280 [2, 8]: 0.092; A280 [2, 9]: 0.061; A280 [2, 10]: 0.00795
Val^8-Lys^33-Asn^34-GLP-1(7-37)OH | 0.09 | >48 h | 
Val^8-Glu^22-Ala^27-GLP-1(7-37)OH (HVEGTFTSDVSSYLEEQAAKAFIAWLVKGRH) |  | >45 h | 
Val^8-Glu^22-Gln^23-GLP-1(7-37)OH (HVEGTFTSDVSSYLEEQAAKEFIAWLVKGRG) | 0.47 | >20 h | 
Val^8-Lys^24-GLP-1(7-37)OH (HVEGTFTSDVSSYLEGQKAKEFIAWLVKGRG) | 0.02 | 22 h | 
Val^8-Lys^22-Glu^30-GLP-1(7-37)OH (HVEGTFTSDVSSYLEKQAAKEFIEWLVKGRG) | 0.37 | 4 h | 
Val^8-Ser^30-GLP-1(7-37)OH (HVEGTFTSDVSSYLEGQAAKEFISWLVKGRG) | 0.19 | 8 h | 
Val^8-Glu^16-GLP-1(7-37)OH (HVEGTFTSDESSYLEGQAAKEFIAWLVKGRG) | 0.047 | 12 h | 
Val^8-Lys^23-GLP-1(7-37)OH (HVEGTFTSDVSSYLEGKAAKEFIAWLVKGRG) | 0.18 | >45 h | 
Val^8-GLP-1(7-37)OH [reference compound] |  | 0.9 ± 0.2 h | A280 [2, 3]: 0.3; A280 [2, 4]: 0.27; A280 [2, 5]: 0.26; A280 [2, 6]: 0.124; A280 [2, 7]: 0.06; A280 [2, 8]: 0.025; A280 [2, 9]: 0.021; A280 [2, 10]: 0.019
Val^8-Lys^22-Glu^23-GLP-1(7-37)OH (HVEGTFTSDVSSYLEKEAAKEFIAWLVKGRH) | 0.35 | >30 h | 
Val^8-Tyr^16-GLP-1(7-37)OH (HVEGTFTSDYSSYLEGQAAKEFIAWLVKGRG) | 1.175 | 5 h | 
Val^8-Ala^27-GLP-1(7-37)OH (HVEGTFTSDVSSYLEGQAAKAFIAWLVKGRG) |  | 2 h | 
GLP-1(7-37)OH [reference compound] |  | 1 h | A280 [2, 3]: 0.337; A280 [2, 4]: 0.318; A280 [2, 5]: 0.329; A280 [2, 6]: 0.253; A280 [2, 7]: 0.148; A280 [2, 8]: 0.092; A280 [2, 9]: 0.081; A280 [2, 10]: 0.074
Gly^8-Glu^22-GLP-1(7-37)OH |  | 19 h | 
Gly^8-GLP-1(7-37)OH (HGEGTFTSDVSSYLEGQAAKEFIAWLVKGRG-OH; UniProt P01275 98-128, looked up, variant A8G) [reference compound] |  |  | A280 [2, 3]: 0.32; A280 [2, 4]: 0.166; A280 [2, 5]: 0.151; A280 [2, 6]: 0.156; A280 [2, 7]: 0.119; A280 [2, 8]: 0.089; A280 [2, 9]: 0.085; A280 [2, 10]: 0.078

Further lines, with some results ahead:

GLP-1 Receptor Activation (GLP-1 receptor) | Substance | Aggregation Time [1] | other results
0.1 | Val^8-Ala^33-GLP-1(7-37)OH (HVEGTFTSDVSSYLEGQAAKEFIAWLAKGRG) | 20 h | 
0.41 | Val^8-His^35-GLP-1(7-37)OH (HVEGTFTSDVSSYLEGQAAKEFIAWLVKHRG) | > 45 h and 30 h | 
0.19 | Val^8-His^30-GLP-1(7-37)OH (HVEGTFTSDVSSYLEGQAAKEFIHWLVKGRG) | 13 h | 
0.37 | Val^8-His^27-GLP-1(7-37)OH (HVEGTFTSDVSSYLEGQAAKHFIAWLVKGRG) | 10 h | 
0.29 | Gly^8-Glu^30-GLP-1(7-37)OH (HGEGTFTSDVSSYLEGQAAKEFIEWLVKGRG) | >40 h | 
0.001 | Val^8-Lys^11-GLP-1(7-37)OH (HVEGKFTSDVSSYLEGQAAKEFIAWLVKGRG) | 13 h | 
0.15 | Val^8-Asp^30-GLP-1(7-37)OH (HVEGTFTSDVSSYLEGQAAKEFIDWLVKGRG) | >45 h | 
0.021 | Val^8-Ala^11-GLP-1(7-37)OH (HVEGAFTSDVSSYLEGQAAKEFIAWLVKGRG) | 10 h | 
1.0 | Val^8-Glu^22-GLP-1(7-36)NH2 (HVEGTFTSDVSSYLEEQAAKEFIAWLVKGR-NH2) | >65 h | 
0.039 | Val^8-Glu^33-GLP-1(7-37)OH (HVEGTFTSDVSSYLEGQAAKEFIAWLEKGRG) | >70 h | 
0.11 | Val^8-Glu^36-GLP-1(7-37)OH (HVEGTFTSDVSSYLEGQAAKEFIAWLVKGEG) | >45 h | 
0.28 | Val^8-Glu^23-GLP-1(7-36)OH (HVEGTFTSDVSSYLEGEAAKEFIAWLVKGR) | 65 h | 
0.094 | Val^8-Pro^35-GLP-1(7-37)OH (HVEGTFTSDVSSYLEGQAAKEFIAWLVKPRG) | 14 h | 
0.08 | Val^8-Lys^33-Val^34-GLP-1(7-37)OH (HVEGTFTSDVSSYLEGQAAKEFIAWLKVGRG) | 22 h | 
0.17 | Val^8-Glu^34-GLP-1(7-37)OH (HVEGTFTSDVSSYLEGQAAKEFIAWLVEGRG) |  | Aggregation Time in Hours ([1]; *Aggregation time determined at 30° C.): >40* Hours
0.34 | Val^8-Gly^34-Lys^35-GLP-1(7-37)OH (HVEGTFTSDVSSYLEGQAAKEFIAWLVGKRG) | 27 h | 
0.01 | Val^8-Gly^33-GLP-1(7-37)OH (HVEGTFTSDVSSYLEGQAAKEFIAWLGKGRG) | 9 h | 
0.53 | Val^8-Lys^22-GLP-1(7-36)NH2 (HVEGTFTSDVSSYLEKQAAKEFIAWLVKGR-NH2) | 24 h | 
0.112 | Val^8-Ala^16-GLP-1(7-37)OH (HVEGTFTSDASSYLEGQAAKEFIAWLVKGRG) | 16 h | 
